The supplement of paper PMC11316812
± gives the standard deviation of the averaged measurements.

Columns and labels:
hTERT-HMEC = test: percentage of EdU-negative (G0-arrested) nuclei per well, 72 h; higher = more G0 arrest; conditions: reference: sequence is the full UniProt precursor, the tested protein was the secreted form or ectodomain
MCF7 = test: as above; conditions: reference: sequence is the full UniProt precursor, the tested protein was the secreted form or ectodomain
[1] = protein concentration 0.0225 µM
[2] = protein concentration 0.010965 µM
[3] = protein concentration 0.10965 µM
[4] = protein concentration 0.03125 µM
[5] = protein concentration 0.3125 µM
[6] = protein concentration 0.0211825 µM
[7] = protein concentration 0.211825 µM
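Further: secreted proteins added to cultured cells, EdU pulse at the end, nuclei found by Hoechst imaging, EdU status from nuclear versus surrounding ring intensity ratio, PBS as neutral control.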

Sequence | percentage of EdU-negative (hTERT-HMEC; [1]) [%] | percentage of EdU-negative (hTERT-HMEC; protein concentration 0.225 µM) [%] | percentage of EdU-negative (MCF7; [1]) [%] | percentage of EdU-negative (MCF7; protein concentration 0.225 µM) [%] | also measured
MARRSRHRLLLLLLRYLVVALGYHKAYGFSAPKDQQVVTAVEYQEAILACKTPKKTVSSRLEWKKLGRSVSFVYYQQTLQGDFKNRAEMIDFNIRIKNVTRSDAGKYRCEVSAPSEQGQNLEEDTVTLEVLVAPAVPSCEVPSSALSGTVVELRCQDKEGNPAPEYTWFKDGIRLLENPRLGSQSTNSSYTMNTKTGTLQFNTVSKLDTGEYSCEARNSVGYRRCPGKRMQVDDLNISGIIAAVVVVALVISVCGLGVCYAQRKGYFSKETSFQKSNSSSKATTMSENDFKHTKSFII | 5.13 ± 0.27 | 4.52 ± 0.093 | 24.2 ± 0.62 | 25.4 ± 2.1 | 
MARSLVCLGVIILLSAFSGPGVRGGPMPKLADRKLCADQECSHPISMAVALQDYMAPDCRFLTIHRGQVVYVFSKLKGRGRLFWGGSVQGDYYGDLAARLGYFPSSIVREDQTLKPGKVDVKTDKWDFYCQ |  |  |  |  | percentage of EdU-negative (hTERT-HMEC; [2]): 5.39 ± 0.091%; percentage of EdU-negative (hTERT-HMEC; [3]): 5.67 ± 0.4%; percentage of EdU-negative (MCF7; [2]): 26.1 ± 1.1%; percentage of EdU-negative (MCF7; [3]): 26.2 ± 1.9%
MARSNLPLALGLALVAFCLLALPRDARARPQERMVGELRDLSPDDPQVQKAAQAAVASYNMGSNSIYYFRDTHIIKAQSQLVAGIKYFLTMEMGSTDCRKTRVTGDHVDLTTCPLAAGAQQEKLRCDFEVLVVPWQNSSQLLKHNCVQM |  |  |  |  | percentage of EdU-negative (hTERT-HMEC; [4]): 5.74 ± 0.7%; percentage of EdU-negative (hTERT-HMEC; [5]): 6.46 ± 0.57%; percentage of EdU-negative (MCF7; [4]): 26.7 ± 0.57%; percentage of EdU-negative (MCF7; [5]): 25.4 ± 1.2%
MARSPGRAYALLLLLICFNVGSGLHLQVLSTRNENKLLPKHPHLVRQKRAWITAPVALREGEDLSKKNPIAKIHSDLAEERGLKITYKYTGKGITEPPFGIFVFNKDTGELNVTSILDREETPFFLLTGYALDARGNNVEKPLELRIKVLDINDNEPVFTQDVFVGSVEELSAAHTLVMKINATDADEPNTLNSKISYRIVSLEPAYPPVFYLNKDTGEIYTTSVTLDREEHSSYTLTVEARDGNGEVTDKPVKQAQVQIRILDVNDNIPVVENKVLEGMVEENQVNVEVTRIKVFDADEIGSDNWLANFTFASGNEGGYFHIETDAQTNEGIVTLIKEVDYEEMKNLDFSVIVANKAAFHKSIRSKYKPTPIPIKVKVKNVKEGIHFKSSVISIYVSESMDRSSKGQIIGNFQAFDEDTGLPAHARYVKLEDRDNWISVDSVTSEIKLAKLPDFESRYVQNGTYTVKIVAISEDYPRKTITGTVLINVEDINDNCPTLIEPVQTICHDAEYVNVTAEDLDGHPNSGPFSFSVIDKPPGMAEKWKIARQESTSVLLQQSEKKLGRSEIQFLISDNQGFSCPEKQVLTLTVCECLHGSGCREAQHDSYVGLGPAAIALMILAFLLLLLVPLLLLMCHCGKGAKGFTPIPGTIEMLHPWNNEGAPPEDKVVPSFLPVDQGGSLVGRNGVGGMAKEATMKGSSSASIVKGQHEMSEMDGRWEEHRSLLSGRATQFTGATGAIMTTETTKTARATGASRDMAGAQAAAVALNEEFLRNYFTDKAASYTEEDENHTAKDCLLVYSQEETESLNASIGCCSFIEGELDDRFLDDLGLKFKTLAEVCLGQKIDINKEIEQRQKPATETSMNTASHSLCEQTMVNSENTYSSGSSFPVPKSLQEANAEKVTQEIVTERSVSSRQAQKVATPLPDPMASRNVIATETSYVTGSTMPPTTVILGPSQPQSLIVTERVYAPASTLVDQPYANEGTVVVTERVIQPHGGGSNPLEGTQHLQDVPYVMVRERESFLAPSSGVQPTLAMPNIAVGQNVTVTERVLAPASTLQSSYQIPTENSMTARNTTVSGAGVPGPLPDFGLEESGHSNSTITTSSTRVTKHSTVQHSYS [J3KSI6] | 4.92 ± 0.3 | 5.13 ± 0.22 | 25 ± 1.2 | 26.57 ± 0.18 | 
MARVLGAPVALGLWSLCWSLAIATPLPPTSAHGNVAEGETKPDPDVTERCSDGWSFDATTLDDNGTMLFFKGEFVWKSHKWDRELISERWKNFPSPVDAAFRQGHNSVFLIKGDKVWVYPPEKKEKGYPKLLQDEFPGIPSPLDAAVECHRGECQAEGVLFFQGDREWFWDLATGTMKERSWPAVGNCSSALRWLGRYYCFQGNQFLRFDPVRGEVPPRYPRDVRDYFMPCPGRGHGHRNGTGHGNSTHHGPEYMRCSPHLVLSALTSDNHGATYAFSGTHYWRLDTSRDGWHSWPIAHQWPQGPSAVDAAFSWEEKLYLVQGTQVYVFLTKGGYTLVSGYPKRLEKEVGTPHGIILDSVDAAFICPGSSRLHIMAGRRLWWLDLKSGAQATWTELPWPHEKVDGALCMEKSLGPNSCSANGPGLYLIHGPNLYCYSDVEKLNAAKALPQPQNVTSLLGCTH |  |  |  |  | percentage of EdU-negative (hTERT-HMEC; [6]): 5.25 ± 0.85%; percentage of EdU-negative (hTERT-HMEC; [7]): 6.11 ± 0.9%; percentage of EdU-negative (MCF7; [6]): 26.5 ± 0.3%; percentage of EdU-negative (MCF7; [7]): 26.7 ± 0.95%
MARVLKAAAANAVGLFSRLQAPIPTVRASSTSQPLDQVTGSVWNLGRLNHVAIAVPDLEKAAAFYKNILGAQVSEAVPLPEHGVSVVFVNLGNTKMELLHPLGRDSPIAGFLQKNKAGGMHHICIEVDNINAAVMDLKKKKIRSLSEEVKIGAHGKPVIFLHPKDCGGVLVELEQA [Q96PE7] | 5.15 ± 0.63 | 6.08 ± 0.26 | 23.93 ± 0.19 | 23.1 ± 1.4 | 
MARYMLLLLLAVWVLTGELWPGAEARAAPYGVRLCGREFIRAVIFTCGGSRWRRSDILAHEAMGDTFPDADADEDSLAGELDEAMGSSEWLALTKSPQAFYRGRPSWQGTPGVLRGSRDVLAGLSSSCCKWGCSKSEISSLC [Q8WXF3] | 4.41 ± 0.39 | 5.85 ± 0.42 | 26.3 ± 1.9 | 26.3 ± 0.94 | 
